Measurements reported in US20200362047A1 (CRESCENDO BIOLOGICS, published 2020).

T1: human GITR-Fc (R&D Systems cat no. 689-GR) (human, UniProt Q9Y5U5 26-161)
T1 construct: Bought protein; also called GITR (Glucocorticoid-induced TNFR-related); not shown: Fc tag
T1 sequence (looked up): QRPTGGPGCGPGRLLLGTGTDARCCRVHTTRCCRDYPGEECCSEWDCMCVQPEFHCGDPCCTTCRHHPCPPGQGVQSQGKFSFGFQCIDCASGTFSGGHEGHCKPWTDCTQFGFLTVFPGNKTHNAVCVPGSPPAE

T2: human OX40-Fc (R&D Systems cat no. 3388-OX) (human, UniProt P43489 29-216)
T2 construct: Bought protein; not shown: Fc tag
T2 sequence (looked up): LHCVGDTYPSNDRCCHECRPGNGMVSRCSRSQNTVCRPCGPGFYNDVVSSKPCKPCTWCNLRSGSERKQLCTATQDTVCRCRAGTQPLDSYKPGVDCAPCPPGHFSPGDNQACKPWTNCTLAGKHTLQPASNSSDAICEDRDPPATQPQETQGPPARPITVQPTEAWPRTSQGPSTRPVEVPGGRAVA


Experiments:
[1] = biological target: T1, human GITR-Fc (R&D Systems cat no. …); assay: ELISA, coated GITR-Fc
Method: (§1) Specificity of binding for CD137 over the tumour necrosis factor receptor family members OX40 and GITR (Glucocorticoid-induced TNFR-related) was determined using an ELISA assay. Nunc Maxisorp plates were coated with 1 ug/ml human CD137-Fc recombinant protein (Acro Biosystems 41B-H5258), human GITR-Fc (R&D Systems cat no. 689-GR) human OX40-Fc (R&D Systems cat no. 3388-OX) in sodium carbonate buffer overnight at 4° C. then washed twice with PBS. Non-specific protein interactions were blocked by incubation with 1% (w/v) skimmed milk powder (Marvel®) in PBS/0.1% Tween-20 for 1 hour at room temperature. Plates were washed twice with PBS then VH or antibody control (1 ug/ml) added for 1 hour at room temperature. Following three washes with PBS/0.1% Tween-20 a 1:1000 dilution of anti His-HRP (VH detection) or anti mouse-HRP (positive control mouse monoclonal antibody detection) was added in 1% Marvel/PBS/0.1% Tween-20. The detection antibodies were allowed to bind for 1 hour at room temperature then the plates were washed twice in PBS/0.1% Tween-20 and once in PBS. The ELISA was developed using TMB substrate and the reaction was stopped by the addition of 50 ul 0.5M H₂SO₄ solution. The absorbance at 450 nm was measured using the BMG Pherastar.

[2] = biological target: T2, human OX40-Fc (R&D Systems cat no. …); assay: ELISA, coated OX40-Fc
Method: as §1

[3] = biological target: T3, human CD137-human Fc chimeric protein (Acro Biosystems cat no. 41B-H5258) (human, UniProt Q07011 24-186); assay: BLI (Octet RED384), CD137-Fc on Protein G sensors, 1:1 model
T3 construct: Bought protein; The Octet Protein G and Biacore experiments name no catalogue number; also called human CD137Fc recombinant protein; human CD137-Fc recombinant protein; not shown: human IgG1 Fc tag
Method: Binding kinetics of purified VH, bivalent VH and trivalent VH molecules were measured on a ForteBio Octet RED 384 instrument. CD137-Fc tagged protein was diluted to 3 μg/ml in kinetics buffer (0.1% BSA, 0.02% Tween, 1×PBS) and coupled to Protein G biosensors (ForteBio cat no. 18-5082) via the Fc tag. VH were serially diluted (typically 1:2 dilution series starting with 50 nM, VH at the highest concentration) and binding to the CD137-Fc-coupled Protein G biosensors measured. Binding kinetics were determined from the (blank subtracted) sensor gram trace using 1:1 binding models and ForteBio Octet Data Analysis 9.0 software. Example kinetic and binding affinity data obtained is shown Table 10 (monovalent VH) and FIG. 1 (bivalent and trivalent molecules).

[4] = biological target: T3, human CD137-human Fc chimeric protein …; assay: BLI (Octet RED384), CD137-Fc amine-coupled to AR2G sensors, 1:1 model
Method: The kinetics of monovalent and bispecific Humabody VH were determined on a ForteBio Octet RED 384 instrument. To study the interaction with the antigens, CD137-Fc tag protein (Acro Biosystems cat no. 41B-H5258) or PSMA-his (R&D Systems cat no. 4234-ZN) was immobilised onto AR2G biosensors (ForteBio cat no. 18-5082) by amine coupling. Monovalent VH and bispecific molecules were serially diluted (typically 1:2 dilution series starting between 12-25 nM, at the highest concentration) in kinetics buffer (0.1% BSA, 0.02% Tween, 1×PBS) and binding to the immobilised proteins was studied during the association and dissociation phases. PSMA binding was measured using 180 seconds association and 600 seconds dissociation phases. CD137 binding was measured 180 seconds association and 600 seconds dissociation phases. Reference subtracted data were fitted to a 1:1 binding model using the ForteBio Octet Data Analysis software.

| Binder | binding result [1] | binding result [2] | Kd [3] [nM] | koff [3] [s⁻¹] | kon [3] [M⁻¹ s⁻¹] | Kd [4] [nM] | koff [4] [s⁻¹] | kon [4] [M⁻¹ s⁻¹] |
| --- | --- | --- | --- | --- | --- | --- | --- | --- |
| Humabody VH 1.18 (VHH, human single VH domain) VH: EVQLVESGGGLVQPGGSLRLSCAASGFTFSTHWMNWARQAPGKELEWVANINQDGSEKYYVDSVEGRFTISRDNANNSLYLQMNSLRAEDTAVYYCARGGVGYGDSHFGMDVWGLGTTVTVSSHHHHHH | no binding (tested: 1 ug/ml) | no binding (tested: 1 ug/ml) | 0.12 | 0.000625 | 5.18e+06 | – | – | – |
| Humabody VH 1.11 (VHH, human single VH domain) VH: EVQLVESGGGLVQPGGSLRLSCEASGFTFSDYWMNWARQAPGKGLEWVANIKEDGSEKYYVDSVEGRFTISRDNAKNSTYLQMNSLRAEDTAVYYCARGGAGYSMSHYGMDVWGQGTTVTVSSHHHHHH | no binding (tested: 1 ug/ml) | no binding (tested: 1 ug/ml) | 2.5 | 0.00148 | 596000 | – | – | – |
| Humabody VH 1.52 (VHH, human single VH domain) VH: EVQLVESGGGLVQIGGSLRLSCAASGFTFSKYWMIWVRQAPEKGLEWVANINQDGSEKYYVDSVEGRFTISRDNANNSLFLQMNSLRAEDTAVYYCARGGDDYSISHFGMDVSGQGTRVTVSSHHHHHH | no binding (tested: 1 ug/ml) | no binding (tested: 1 ug/ml) | 3.2 | 0.000963 | 300000 | – | – | – |
| Humabody VH 1.1 (VHH, human single VH domain; also called single domain antibody 1.1) VH: EVQLVESGGGLVQPGGSLRLSCAASGFTFSSHWMTWFRQAPGKGLEWVAHIKEDGSEKYYEDSVEGRFTVSRDNAKNSVYLQMNSLRAEDTAVYYCARGGDGYSDSHFGVDVWGQGTTVTVSSHHHHHH | no binding (tested: 1 ug/ml) | no binding (tested: 1 ug/ml) | 0.34 | 0.00034 | 989000 | 0.52 | 0.00036 | 710000 |
| Humabody VH 2.1 (VHH, human single VH domain) VH: EVQLVESGGGLVKPGGSLRVSCAASGFTFSDYYMSWFRQAPGKGLEWVSYISGSGDIIDYADSVKGRFTISRDNAKNSLYLQMNNLRAEDTAVYHCAREDSRLTGTTDFDNWGQGTLVTVSSHHHHHH | no binding (tested: 1 ug/ml) | no binding (tested: 1 ug/ml) | 2.9 | 0.00388 | 1.35e+06 | 6.7 | 0.0052 | 770000 |

The remaining lines, values ahead:

| binding result [1] | binding result [2] | Kd [3] [nM] | koff [3] [s⁻¹] | kon [3] [M⁻¹ s⁻¹] | Kd [4] [nM] | koff [4] [s⁻¹] | kon [4] [M⁻¹ s⁻¹] | Binder |
| --- | --- | --- | --- | --- | --- | --- | --- | --- |
| no binding (tested: 1 ug/ml) | no binding (tested: 1 ug/ml) | 0.72 | 0.000219 | 304000 | – | – | – | Humabody VH 1.78 (VHH, human single VH domain) VH: QVQLVESGGGLVQPGGSLRLSCAATGFTLSNYWMNWVRQAPGKGLEWVANINQDGSERYYVDSVKGRFTISRDNAKNSLYLQMSSLRAEDTAVYFCARGGEGYGVDHYGLDVSGQGTTVTVSSHHHHHH |
| no binding (tested: 1 ug/ml) | no binding (tested: 1 ug/ml) | 5.3 | 0.00616 | 1.17e+06 | – | – | – | Humabody VH 2.8 (VHH, human single VH domain) VH: EVQLVESGGGLVKPGGSLRLSCAASGFAFSDYYMSWFRQAPGKGLEWVSHISGSGTTIDYADSVKGRFTISRDNAKNSLYLQMNSLRAEDTAVYHCAREDSRMPGTTDFDNWGQGTLVTVSSHHHHHH |
| no binding (tested: 1 ug/ml) | no binding (tested: 1 ug/ml) | – | – | – | – | – | – | Humabody VH 2.9 (VHH, human single VH domain) VH: EVQLVESGGGLVKPGGSLRLSCAASGFTFSDYYMTWFRQAPGKGLEWISYISGSGDTIDYAESVKGRFTISRDNAKNSLYLQMNSLRAEDTAVYHCAREDSRIAGTTDFDNWGPGTLVTVSSHHHHHH |
| no binding (tested: 1 ug/ml) | no binding (tested: 1 ug/ml) | 0.96 | 0.00157 | 1.63e+06 | – | – | – | Humabody VH 2.14 (VHH, human single VH domain) VH: EVQLVESGGGLVKPGGSLRLSCAASGFTFSDYYMTWFRQAPGKGLEWISYISGSGDTIDYAESVKGRFTISRDNAKNSLYLQMNSLRAEDTAVYYCAREDIRMPGTTDFDHWGQGTLVTVSSHHHHHH |
